From the supplement of paper PMC9233669
This sample holds only a part of the variants without activity.

Legend:
biotinyl-Phe-oxazolone = test: self-aminoacylation, catalytic enhancement (BFO) (fold over background); higher = more active; k-Seq, kA / k0A0; sequences stand for … in GGGAAUGGAUCCACAUCUACGAAUUC…UUCACUGCAGACUUGACGAAGCUG
Method in brief: (§1)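 Mutagenized RNA pools with a 21-nt variable region (0.43 μM) were reacted with each biotinyl-aminoacyl-oxazolone at 2–1250 μM for 90 minutes at room temperature, in 50 μL HEPES/NaCl/KCl/MgCl2/CaCl2 buffer containing 5% acetonitrile at pH 6.9–7.0. RNA captured on streptavidin was quantified by triplicate qPCR and by Illumina sequencing. The fraction reacted for each sequence was fit to a pseudo-first-order model with bootstrapping, and catalytic enhancement is the median kA divided by the uncatalyzed rate, taken as the low-activity peak of a bimodal Gaussian fit.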

biotinyl-Met-oxazolone = test: self-aminoacylation, catalytic enhancement (BMO) (fold over background); higher = more active; k-Seq, kA / k0A0; sequences stand for … in GGGAAUGGAUCCACAUCUACGAAUUC…UUCACUGCAGACUUGACGAAGCUG
Method in brief: as §1

biotinyl-Trp-oxazolone = test: self-aminoacylation, catalytic enhancement (BWO) (fold over background); higher = more active; k-Seq, kA / k0A0; sequences stand for … in GGGAAUGGAUCCACAUCUACGAAUUC…UUCACUGCAGACUUGACGAAGCUG
Method in brief: as §1

biotinyl-Val-oxazolone = test: self-aminoacylation, catalytic enhancement (BVO) (fold over background); higher = more active; k-Seq, kA / k0A0; sequences stand for … in GGGAAUGGAUCCACAUCUACGAAUUC…UUCACUGCAGACUUGACGAAGCUG
Method in brief: as §1

biotinyl-Ile-oxazolone = test: self-aminoacylation, catalytic enhancement (BIO) (fold over background); higher = more active; k-Seq, kA / k0A0; sequences stand for … in GGGAAUGGAUCCACAUCUACGAAUUC…UUCACUGCAGACUUGACGAAGCUG
Method in brief: as §1

biotinyl-Leu-oxazolone = test: self-aminoacylation, catalytic enhancement (BLO) (fold over background); higher = more active; k-Seq, kA / k0A0; sequences stand for … in GGGAAUGGAUCCACAUCUACGAAUUC…UUCACUGCAGACUUGACGAAGCUG
Method in brief: as §1

Sequence | self-aminoacylation (biotinyl-Phe-oxazolone) | self-aminoacylation (biotinyl-Met-oxazolone) | self-aminoacylation (biotinyl-Trp-oxazolone) | self-aminoacylation (biotinyl-Val-oxazolone) | self-aminoacylation (biotinyl-Ile-oxazolone) | self-aminoacylation (biotinyl-Leu-oxazolone)
AUUCACCUAGGUAAUUGGGUG [Fam2.2 aminoacylation ribozyme variant] | 32.1 | 4.54 | 4.01 | 2.63 | 2.94 | 6.35
CGACUUCAAACAAUCAGUCUG [Fam1A.1 aminoacylation ribozyme variant] | 28.2 | 1.01 | 10.2 | 0.893 | 0.938 | 1.27
AAGUUCGCUAAUAAUCGCAAG [Fam3.1 aminoacylation ribozyme variant] | 1.54 | 1.24 | 0.758 | 1.31 | 1.24 | 1.02
ACUACCCGGGUCAUCGAGUGA [Fam2.1 aminoacylation ribozyme variant] | 43.7 | 7.84 | 8.27 | 4.17 | 4.64 | 8.28
AUUACGCUGGUGAUCGAGUGA [Fam2.1 aminoacylation ribozyme variant] | 25.3 | 4.44 | 5.45 | 2.59 | 2.89 | 5.37
AUUACCCUGGAAAUCGAGUGA [Fam2.1 aminoacylation ribozyme variant] | 149 | 19.4 | 22.6 | 8.39 | 8.3 | 20.8
CUUCUUCAAACAAUCCGUCUG [Fam1A.1 aminoacylation ribozyme variant] | 1.17 | 0.623 | 0.964 | 0.901 | 0.85 | 0.923
AUUACGGUGGUCAUCGAGUGA [Fam2.1 aminoacylation ribozyme variant] | 5.75 | 2.68 | 3.24 | 2.09 | 2.44 | 2.56
AUUACCCUGGCCAUCGGGUGA [Fam2.1 aminoacylation ribozyme variant] | 49.1 | 8.01 | 11.8 | 6.42 | 3.8 | 9.65
CCACCCUUCAAGCACUCGGUC [Fam1B.1 aminoacylation ribozyme variant] | 0.826 | 1.14 | 1.46 | 1.68 | 1.54 | 1.15
AUUCACCUAGGUCAUCGGGCG [Fam2.2 aminoacylation ribozyme variant] | 13.8 | 7.58 | 5.66 | 4.82 | 4.76 | 10.3
AUUUCCUUGGUCAUCGAGUGA [Fam2.1 aminoacylation ribozyme variant] | 43.8 | 8.2 | 11.1 | 4.63 | 4.35 | 8.92
AUUCACCUAGGUCAUGGCGUG [Fam2.2 aminoacylation ribozyme variant] | 59.8 | 9.82 | 8.17 | 5.9 | 5.83 | 13.2
AAGUUUGCAAAUAGCCGCAAG [Fam3.1 aminoacylation ribozyme variant] | 0.662 | 0.737 | 1.07 | 1.06 | 1.05 | 0.933
AUUCACCCAGGUCAGCGGGUG [Fam2.2 aminoacylation ribozyme variant] | 18.4 | 3.76 | 4.34 | 2.73 | 2.93 | 5.61
CCACCCUUCAAGCAAUCGGAC [Fam1B.1 aminoacylation ribozyme variant] | 0.866 | 0.991 | 0.664 | 1.31 | 1.04 | 0.712
CCACACUUCACGCAAUCUGUC [Fam1B.1 aminoacylation ribozyme variant] | 0.436 | 0.472 | 0.464 | 0.678 | 0.481 | 0.447
CCAGACUUCAAGCAAUCAGUC [Fam1B.1 aminoacylation ribozyme variant] | 12.6 | 0.826 | 5.08 | 0.837 | 1.04 | 1.03
CUUACCCUGGUCAUCGAGUAA [Fam2.1 aminoacylation ribozyme variant] | 8.84 | 4.58 | 3.51 | 2.8 | 2.03 | 4.25
AAGUCUGCUAAUAGUCGCGAG [Fam3.1 aminoacylation ribozyme variant] | 5.39 | 1.77 | 3.06 | 1.33 | 1.26 | 1.36
AUUACCCGGGUCAUCGAGUCA [Fam2.1 aminoacylation ribozyme variant] | 1.05 | 1.32 | 0.967 | 1.16 | 1.29 | 1.22
UAGUUUGCUAAAAGUCGCAAG [Fam3.1 aminoacylation ribozyme variant] | 3.92 | 1.93 | 3.43 | 1.6 | 1.53 | 1.57
AGGUUUACUAAUAGUCGCAAG [Fam3.1 aminoacylation ribozyme variant] | 4.12 | 1.84 | 1.81 | 1.47 | 1.58 | 1.49
AUUACCCUGGUCUUCCAGUGA [Fam2.1 aminoacylation ribozyme variant] | 31.7 | 5.48 | 6.46 | 3.51 | 3.79 | 5.94
CUACUUUAAAAAAUCGGUCUG [Fam1A.1 aminoacylation ribozyme variant] | 0.887 | 0.987 | 0.72 | 0.87 | 1.01 | 0.744
AUUCACCUAGGCCAACGGGUG [Fam2.2 aminoacylation ribozyme variant] | 14.5 | 2.61 | 3.02 | 2.04 | 2.23 | 4.01

Sequence | self-aminoacylation (biotinyl-Phe-oxazolone) | self-aminoacylation (biotinyl-Met-oxazolone) | self-aminoacylation (biotinyl-Trp-oxazolone) | self-aminoacylation (biotinyl-Val-oxazolone) | self-aminoacylation (biotinyl-Ile-oxazolone) | self-aminoacylation (biotinyl-Leu-oxazolone)
CCACACAGCAAGCAAUCGGUC [Fam1B.1 aminoacylation ribozyme variant] | 1.35 | 0.699 | 0.608 | 1.11 | 0.864 | 0.787
ACGUUUCCUAAUAGUCGCAAG [Fam3.1 aminoacylation ribozyme variant] | 1.35 | 1.33 | 1.3 | 1.21 | 1.61 | 1.08
CUACUUCAAACGCUCGGUCUG [Fam1A.1 aminoacylation ribozyme variant] | 0.793 | 0.592 | 0.637 | 0.828 | 0.741 | 1.09
GCACACUUCACGCAAUCGGUC [Fam1B.1 aminoacylation ribozyme variant] | 10.1 | 2 | 3.02 | 2.22 | 2.5 | 1.93
AUUACCCUGGCCCUCGAGUGA [Fam2.1 aminoacylation ribozyme variant] | 24.1 | 4.04 | 3.6 | 3.42 | 2.5 | 4.5
CUACUUCAACCAAUCGGACUG [Fam1A.1 aminoacylation ribozyme variant] | 10.7 | 0.814 | 4.9 | 0.946 | 0.79 | 0.851
AUUAGCCUGGUCAUCGACUGA [Fam2.1 aminoacylation ribozyme variant] | 1.59 | 1.21 | 0.565 | 1.04 | 1.22 | 1.13
CCACACUUCAAGCCAUGGGUC [Fam1B.1 aminoacylation ribozyme variant] | 0.678 | 1.13 | 0.675 | 0.952 | 1.15 | 1.14
AAGUUUGCUAAUAGUCGCUAG [Fam3.1 aminoacylation ribozyme variant] | 1.68 | 0.813 | 1.05 | 0.852 | 0.852 | 0.809
CCACACUUCAAGCAGACGGUC [Fam1B.1 aminoacylation ribozyme variant] | 0.719 | 0.607 | 0.539 | 0.57 | 0.686 | 0.605
AAGUUUACUAAUAGUCACAAG [Fam3.1 aminoacylation ribozyme variant] | 2.55 | 1.33 | 1.39 | 1.44 | 1.74 | 1.33
CCACACUUCAUGCAAUCGGUU [Fam1B.1 aminoacylation ribozyme variant] | 0.766 | 1.33 | 0.843 | 1.26 | 1.2 | 1.37
CCACACUUCAACCAAUCAGUC [Fam1B.1 aminoacylation ribozyme variant] | 28.8 | 0.804 | 9.75 | 1.04 | 0.978 | 1.04
CUAGUUCAAACACUCGGUCUG [Fam1A.1 aminoacylation ribozyme variant] | 5.58 | 1.46 | 1.04 | 1.31 | 1.35 | 1.48
AACUUUGCUAAUAGUCGCAUG [Fam3.1 aminoacylation ribozyme variant] | 2.98 | 2.35 | 2.85 | 1.89 | 2.77 | 2.79
AGUUACCUAGGUCAUCGGGUG [Fam2.2 aminoacylation ribozyme variant] | 40.1 | 5.38 | 6.91 | 4.62 | 4.59 | 6.47
AUCACCCUGGUCAUCGUGUGA [Fam2.1 aminoacylation ribozyme variant] | 34.7 | 3.98 | 4.97 | 2.31 | 1.81 | 5.08
CUACUACAAACAAUCGGACUG [Fam1A.1 aminoacylation ribozyme variant] | 0.703 | 0.695 | 0.469 | 0.769 | 0.852 | 0.582
AUUCACCUUGGUCAUCGGGUA [Fam2.2 aminoacylation ribozyme variant] | 5.21 | 3.09 | 2.75 | 2.98 | 2.5 | 2.64
AUUACCGUGGUCAUCGAGUGU [Fam2.1 aminoacylation ribozyme variant] | 12.9 | 3.17 | 4.27 | 2.46 | 1.89 | 3.51
AAGUGUGCUAAUAGUCGCAAA [Fam3.1 aminoacylation ribozyme variant] | 2.76 | 2.07 | 1.88 | 1.41 | 1.79 | 1.52
ACGUUUGCUUAUAGUCGCAAG [Fam3.1 aminoacylation ribozyme variant] | 1.76 | 1.68 | 1.75 | 1.46 | 1.32 | 1.67
AUUACCCUGGUCUUCGUGUGA [Fam2.1 aminoacylation ribozyme variant] | 7.45 | 1.46 | 1.93 | 1.02 | 1.05 | 1.45
AUUACCCUGGUCGUCGAGUCA [Fam2.1 aminoacylation ribozyme variant] | 0.524 | 0.904 | 0.444 | 1.05 | 1.05 | 0.956
CCACACUUCAAGUAGUCGGUC [Fam1B.1 aminoacylation ribozyme variant] | 0.856 | 0.857 | 0.919 | 0.865 | 0.96 | 0.92
